B1: SaSerRS (Staphylococcus aureus subsp. aureus NCTC 8325) (protein)
chain: MLDIRLFRNEPDTVKSKIELRGDDPKVVDEILELDEQRRKLISATEEMKARRNKVSEEIALKKRNKENADDVIAEMRTLGDDIKEKDSQLNEIDNKMTGILCRIPNLISDDVPQGESDEDNVEVKKWGTPREFSFEPKAHWDIVEELKMADFDRAAKVSGARFVYLTNEGAQLERALMNYMITKHTTQHGYTEMMVPQLVNADTMYGTGQLPKFEEDLFKVEKEGLYTIPTAEVPLTNFYRNEIIQPGVLPEKFTGQSACFRSEAGSAGRDTRGLIRLHQFDKVEMVRFEQPEDSWNALEEMTTNAEAILEELGLPYRRVILCTGDIGFSASKTYDLEVWLPSYNDYKEISSCSNCTDFQARRANIRFKRDKAAKPELAHTLNGSGLAVGRTFAAIVENYQNEDGTVTIPEALVPFMGGKTQISKPVK
B2: EcSerRS (Escherichia coli K-12) (protein)
chain: MLDPNLLRNEPDAVAEKLARRGFKLDVDKLGALEERRKVLQVKTENLQAERNSRSKSIGQAKARGEDIEPLRLEVNKLGEELDAAKAELDALQAEIRDIALTIPNLPADEVPVGKDENDNVEVSRWGTPREFDFEVRDHVTLGEMHSGLDFAAAVKLTGSRFVVMKGQIARMHRALSQFMLDLHTEQHGYSENYVPYLVNQDTLYGTGQLPKFAGDLFHTRPLEEEADTSNYALIPTAEVPLTNLVRGEIIDEDDLPIKMTAHTPCFRSEAGSYGRDTRGLIRMHQFDKVEMVQIVRPEDSMAALEEMTGHAEKVLQLLGLPYRKIILCTGDMGFGACKTYDLEVWIPAQNTYREISSCSNVWDFQARRMQARCRSKSDKKTRLVHTLNGSGLAVGRTLVAVMENYQQADGRIEVPEVLRPYMNGLEYIG

Substrate: N[C@@H](CO)C(=O)O
Test: purified protein, by the assay type
Settings: pH 7.6; 37.0 °C

Protein	Km [mM]
B1	4.39 ± 0.654
B2	4.706 ± 0.706

Reference: doi:10.1101/586255v1
